B1: Asp...Lys analog of peptide No. 18: Ac-Arg-cyclo(Asp-Dab(Acetyl)-D-Phe-Arg-Trp-Lys)-NH2 (peptide)
peptide: Ac-RD[Dab](Ac)[dF]RWK-NH2
modifications: lactam 2-7
SMILES: CC(=O)NCC[C@@H]1NC(=O)[C@@H](NC(=O)[C@H](CCCNC(=N)N)NC(C)=O)CC(=O)NCCCC[C@@H](C(N)=O)NC(=O)[C@H](Cc2c[nH]c3ccccc23)NC(=O)[C@H](CCCNC(=N)N)NC(=O)[C@@H](Cc2ccccc2)NC1=O

Bridge positions count the residues as written; N and C are the ends. Square brackets hold non-standard residues; d marks the D form. Orn = NCCC[C@H](N)C(=O)O; Dab = NCC[C@H](N)C(=O)O

The target in the assay is human melanocortin-4 receptor (recombinant hMC4-R) (human), P32245. The assay can be described thus: competition with labelled NDP-α-MSH ([I125] or Eu), hMC4-R HEK-293 membranes. The following applies: remark: other sources report otherwise.
Chain of human melanocortin-4 receptor (recombinant hMC4-R) (human), P32245 (P32245 whole entry): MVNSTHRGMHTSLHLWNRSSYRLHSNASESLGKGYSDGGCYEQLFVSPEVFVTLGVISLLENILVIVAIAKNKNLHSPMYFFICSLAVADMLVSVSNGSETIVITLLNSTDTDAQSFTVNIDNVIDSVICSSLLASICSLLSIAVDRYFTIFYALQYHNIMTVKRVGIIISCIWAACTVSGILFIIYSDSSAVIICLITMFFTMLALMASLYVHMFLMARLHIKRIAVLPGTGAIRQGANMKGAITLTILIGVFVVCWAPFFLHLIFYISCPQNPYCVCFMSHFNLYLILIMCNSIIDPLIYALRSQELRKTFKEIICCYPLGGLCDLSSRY
Take Ac-RD[Dab][dF]RWK-OH (lactam 2-7) [Asp...Lys analog of peptides No. 5 and No. 42: Ac-Arg-cyclo(Asp-Dab-D-Phe-Arg-Trp-Lys)-OH]: the Ki – broadly, the equilibrium dissociation constant of an inhibitor or competing ligand from its target – turned out to be 56 nM.
The same measure for Ac-RD[Orn][dF]RWK-NH2 (lactam 2-7) [Asp...Lys analog of peptide No. 8: Ac-Arg-cyclo(Asp-Orn-D-Phe-Arg-Trp-Lys)-NH2]: 7 nM; for Ac-RD[Orn][dF]RWK-OH (lactam 2-7) [Asp...Lys analog of peptide No. 7: Ac-Arg-cyclo(Asp-Orn-D-Phe-Arg-Trp-Lys)-OH]: 18 nM.
Then Ac-RD[Orn](Ac)[dF]RWK-NH2 (lactam 2-7) [Asp...Lys analog of peptide No. 33: Ac-Arg-cyclo(Asp-Orn(Acetyl)-D-Phe-Arg-Trp-Lys)-NH2], with 573 nM.
The same measure for B1: 33 nM; for Ac-RD[Dab][dF]RWK-NH2 (lactam 2-7) [Asp...Lys analog of peptides No. 6 and No. 43: Ac-Arg-cyclo(Asp-Dab-D-Phe-Arg-Trp-Lys)-NH2]: 4 nM.

(Values after patent US20120077957A1, “Lactam-Bridged Melanocortin Receptor-Specific Peptides” (PALATIN TECHNOLOGIES, INC., priority 2009, published 2012).)
